Reference: PMC8050391, “Structure of 3-mercaptopropionic acid dioxygenase with a substrate analog reveals bidentate substrate binding at the iron center” (The Journal of Biological Chemistry, 2021)

Tests used:
[1] = biological target: T1, 3-mercaptopropionic acid dioxygenase (Av3MDO) (Azotobacter vinelandii, UniProt C1DN94); experiment: X-ray crystal structure ([…] Å); competitive inhibition by O2 electrode steady-state kinetics; type: biochemical
T1 construct: gene Avin_30970; His-tag removed by thrombin; N- and C-termini not modelled

[2] = biological target: Azotobacter vinelandii 3-mercaptopropionic acid dioxygenase (Azotobacter vinelandii); experiment: crystal structure; crystal form A, space group P3(1), 12 monomers in the asymmetric unit; 100 mM MES pH 6, 30% poly(acrylic acid sodium salt) 5100, 10% ethanol, 50 mM MgCl2, 22 °C; complex with 3HPA and chloride
[3] = biological target: Azotobacter vinelandii 3-mercaptopropionic acid dioxygenase (Azotobacter vinelandii); experiment: crystal structure; crystal form B, space group P6(1)22, four monomers in the asymmetric unit; HEPES pH 7, pentaerythritol propoxylate, sodium thiocyanate, 22 °C; thiocyanate bound at the iron

T1 sequence (C1DN94 entry or part of it): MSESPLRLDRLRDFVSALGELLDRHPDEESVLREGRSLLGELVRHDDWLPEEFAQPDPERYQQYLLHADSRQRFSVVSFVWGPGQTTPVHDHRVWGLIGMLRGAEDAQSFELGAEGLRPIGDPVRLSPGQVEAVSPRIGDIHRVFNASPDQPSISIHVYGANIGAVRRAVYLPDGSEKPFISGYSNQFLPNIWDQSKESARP

Ki [1] [µM]	stoichiometry N [2]	stoichiometry N [3]	Compound
280 ± 26			O=C(O)CCO [3HPA, 3-hydroxypropionic acid]
	2	2	Azotobacter vinelandii 3-mercaptopropionic acid dioxygenase (enzyme)
